Source: publication PMC9175492
pKd: −log10 of the molar value.

Key:
[1] = target: LgBit, an 18-kDa subunit of NanoLuc; experiment: split reporter
[2] = target: proteins in FBS (bovine (fetal bovine serum)); experiment: fluorescence polarisation

Substance	fold induction of luminescence at 10 μM [1]	pKd [2]
CPP12-HiBit conjugate (peptide)	200 fold	–
FITC-labeled CPP12 (peptide)	–	4.54
NF-labeled CPP12 (peptide)	–	5.89
TMR-labeled CPP12 (peptide)	–	4.57
